From article PMC5916273, “Structure of a VirD4 coupling protein bound to a VirB type IV secretion machinery” (The EMBO Journal, 2017)

B1: TrwB/VirD4 coupling protein of plasmid R388, N-terminally His-tagged (natural protein, conjugative plasmid R388, UniProt Q04230 1-507, looked up)
chain: MHPDDQRKVSAGIVIVLPLIFWITAVQKTEVLGSPKLLALWELMKLTPQKPILLLSALGGLAVGVLFVWLLNSVGQGEFGGAPFKRFLRGTRIVSGGKLKRMTREKAKQVTVAGVPMPRDAEPRHLLVNGATGTGKSVLLRELAYTGLLRGDRMVIVDPNGDMLSKFGRDKDIILNPYDQRTKGWSFFNEIRNDYDWQRYALSVVPRGKTDEAEEWASYGRLLLRETAKKLALIGTPSMRELFHWTTIATFDDLRGFLEGTLAESLFAGSNEASKALTSARFVLSDKLPEHVTMPDGDFSIRSWLEDPNGGNLFITWREDMGPALRPLISAWVDVVCTSILSLPEEPKRRLWLFIDELASLEKLASLADALTKGRKAGLRVVAGLQSTSQLDDVYGVKEAQTLRASFRSLVVLGGSRTDPKTNEDMSLSLGEHEVERDRYSKNTGKHHSTGRALERVRERVVMPAEIANLPDLTAYVGFAGNRPIAKVPLEIKQFANRQPAFVEGTI
notes: TrwB (VirD4 homologue), coupling protein encoded by the conjugative plasmid R388; whole gene cloned after trwD/virB11; theoretical molecular weight with 10 additional histidines 57 kDa; Inner membrane protein; also called His trwB_(/virD4); source: detergent-solubilised membranes; co-purified (Strep column, HisTrap); not shown: His10, N-terminal, kept

Tests used:
[1] = molecular target: T4SS_(3-10) complex of plasmid R388 (TrwM/VirB3 to TrwE/VirB10) (conjugative plasmid R388); assay: cysteine labelling with Alexa Fluor 633 C5 maleimide and fluorescence of SDS-PAGE bands; co-purified T4SS3-10+D4 complex denatured in 1% SDS, reduced with TCEP, labelled; band of TrwE (14 copies) as reference; three independent preparations
[2] = molecular target: the molecule itself; assay: negative stain electron microscopy structure; co-purified T4SS3-10+D4 complex from the ΔtrwD/virB11 construct, cross-linked with 0.1% glutaraldehyde on a 10-30% sucrose gradient (GraFix); 2% uranyl acetate; reconstruction of the inner membrane complex, C2 symmetry, 28 Å

Row | Molecule | stoichiometry N (TrwB subunits per complex) [1] | stoichiometry N [2]
1 | TrwB/VirD4 coupling protein of plasmid R388, N-terminally His-tagged (from UniProt Q04230 1-507) (natural protein) | 4.5 | 
2 | B1 |  | 2 TrwB molecules in each region of density
